Data set [1] is described as follows: PET/CT imaging in NCI-H292 tumor bearing nude mice. Conditions: mouse, iv, subcutaneous NCI-H292 tumor, 11 MBq via tail vein, 2 hours post-injection, PET/CT quantified by PMODE, read-out: tumor/muscle ratio (T/M ratio). It is filed as in vivo. On the procedure:
In this example, the bispecific peptide conjugate (that is, ^68Ga-NOTA-RGD-GE11) tagged with a radioactive isotope prepared in Example 2 was tested and was compared with monospecific peptide conjugate ^68Ga-NOTA-GE11. The right thigh of nude mice was subcutaneously inoculated with 5×10^6 NCI-H292 tumor cells. The tumors were allowed to grow for about 4 weeks until the tumor size reached 0.5 cm diameter. Then, the animals were anesthetized with isoflorane, injected with 11 MBq ^68Ga-NOTA-RGD-GE11 or ^68Ga-NOTA-GE11 (0.1 mL) via the tail vein, and imaged for 2 hours by Positron Emission Tomography/Computed Tomography (PET/CT). The images were quantified by using PMODE Software.

Data set [2] concerns the target T1, integrin αV in A549 tumor cells (Homo sapiens, UniProt P05106+P06756).
T1 construct: endogenous in cells; host or cells: A549 tumor cells
The experiment in a line: Specific binding assay: inhibition of anti-integrin αV antibody binding to A549 tumor cells. It is filed as cell-based. To be noted: various concentrations, 2 hrs, absorbance decreases with increasing concentration. On the procedure: (§1) In this example, the bispecific peptide conjugate (that is, NOTA-c(RGDyk)-cys-6-ahx-GE11) prepared in Example 1 was assayed.
(§2) A549 tumor cells were plated in a 96-well plate (5×10^4 cells/well). Various concentrations of NOTA-c(RGDyk)-cys-6-ahx-GE11 and anti-EGFR antibody or anti-integrin αV antibody were added and reacted for 2 hrs. Then, a secondary antibody and ABTS were added and reacted for 8 hrs. The antibody binding was assayed by a fluorimeter.

Another data set has as its target T2, EGFR in A549 tumor cells (Homo sapiens, UniProt P00533).
T2 construct: endogenous in cells; host or cells: A549 tumor cells
The experiment in a line: Specific binding assay: inhibition of anti-EGFR antibody binding to A549 tumor cells. It is filed as cell-based. To be noted: various concentrations, 2 hrs, absorbance decreases with increasing concentration. On the procedure: as §1, §2

Read-outs that look alike come from different tables or passages of the source.

T1 sequence (P06756 31-889 limits assumed): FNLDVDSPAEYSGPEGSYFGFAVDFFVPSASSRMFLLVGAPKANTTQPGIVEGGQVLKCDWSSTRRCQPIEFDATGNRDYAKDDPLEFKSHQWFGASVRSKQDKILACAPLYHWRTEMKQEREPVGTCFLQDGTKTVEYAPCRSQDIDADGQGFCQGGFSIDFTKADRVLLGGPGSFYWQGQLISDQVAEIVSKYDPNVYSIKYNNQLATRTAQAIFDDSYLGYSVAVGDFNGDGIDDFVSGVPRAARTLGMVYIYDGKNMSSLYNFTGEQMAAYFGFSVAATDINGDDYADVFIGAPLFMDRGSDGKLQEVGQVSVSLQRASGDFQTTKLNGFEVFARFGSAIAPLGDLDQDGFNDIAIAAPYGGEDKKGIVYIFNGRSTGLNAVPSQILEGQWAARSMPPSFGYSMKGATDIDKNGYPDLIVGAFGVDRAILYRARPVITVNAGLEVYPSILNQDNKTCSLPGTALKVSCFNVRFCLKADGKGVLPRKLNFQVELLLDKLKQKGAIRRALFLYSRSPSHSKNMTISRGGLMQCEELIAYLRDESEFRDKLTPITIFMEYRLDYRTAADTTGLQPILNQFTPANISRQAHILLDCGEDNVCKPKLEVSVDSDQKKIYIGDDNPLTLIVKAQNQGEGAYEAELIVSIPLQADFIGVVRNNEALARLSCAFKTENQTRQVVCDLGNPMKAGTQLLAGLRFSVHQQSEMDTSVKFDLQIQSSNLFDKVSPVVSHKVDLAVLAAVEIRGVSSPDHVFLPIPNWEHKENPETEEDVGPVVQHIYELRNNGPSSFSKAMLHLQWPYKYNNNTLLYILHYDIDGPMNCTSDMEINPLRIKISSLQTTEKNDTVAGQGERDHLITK
T1 sequence (P06756 891-1048 partner limits assumed): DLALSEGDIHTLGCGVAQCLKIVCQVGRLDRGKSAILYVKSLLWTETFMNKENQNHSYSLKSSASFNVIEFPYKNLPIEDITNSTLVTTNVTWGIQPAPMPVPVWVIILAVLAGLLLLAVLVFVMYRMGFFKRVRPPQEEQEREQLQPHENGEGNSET
T1 sequence (P05106 27-788): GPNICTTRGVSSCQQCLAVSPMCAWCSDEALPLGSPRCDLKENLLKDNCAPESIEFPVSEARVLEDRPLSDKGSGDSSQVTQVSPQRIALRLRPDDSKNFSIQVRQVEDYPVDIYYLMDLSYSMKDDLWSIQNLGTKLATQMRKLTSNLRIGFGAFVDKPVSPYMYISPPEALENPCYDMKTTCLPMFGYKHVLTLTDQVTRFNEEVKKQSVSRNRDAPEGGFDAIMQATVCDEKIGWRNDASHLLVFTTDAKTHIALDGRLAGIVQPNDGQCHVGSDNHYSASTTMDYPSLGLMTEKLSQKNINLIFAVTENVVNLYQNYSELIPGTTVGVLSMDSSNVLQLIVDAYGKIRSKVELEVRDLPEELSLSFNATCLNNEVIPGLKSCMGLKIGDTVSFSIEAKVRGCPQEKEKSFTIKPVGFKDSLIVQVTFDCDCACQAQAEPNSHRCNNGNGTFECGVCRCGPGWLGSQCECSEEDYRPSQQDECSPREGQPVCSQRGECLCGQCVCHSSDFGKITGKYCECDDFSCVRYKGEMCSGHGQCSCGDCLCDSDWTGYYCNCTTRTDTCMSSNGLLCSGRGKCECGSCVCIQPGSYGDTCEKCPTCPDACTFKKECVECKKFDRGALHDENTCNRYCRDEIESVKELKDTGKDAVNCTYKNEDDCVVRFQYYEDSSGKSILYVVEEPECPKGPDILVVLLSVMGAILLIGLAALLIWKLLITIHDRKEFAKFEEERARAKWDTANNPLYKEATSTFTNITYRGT

Take `CC[C@H](C)[C@H](NC(=O)[C@@H](NC(=O)[C@H](CC(N)=O)NC(=O)[C@H](CCC(N)=O)NC(=O)[C@@H]1CCCN1C(=O)[C@@H](NC(=O)[C@H](Cc1ccc(O)cc1)NC(=O)CNC(=O)[C@H](Cc1ccc(O)cc1)NC(=O)[C@H](Cc1c[nH]c2ccccc12)NC(=O)[C@H](Cc1c[nH]cn1)NC(=O)[C@H](Cc1ccc(O)cc1)NC(=O)CCCCCNC(=O)[C@H](CS)NC(=O)CN1CCN(CC(=O)O)CCN(CC(=O)O)CC1)[C@@H](C)O)C(C)C)C(=O)O` [^68Ga-NOTA-GE11, metal not drawn, reference compound]: the tissue to tissue ratio at 2 h in data set [1] (in vivo) was found to be 1.87.

Turning to `CC[C@H](C)[C@H](NC(=O)[C@@H](NC(=O)[C@H](CC(N)=O)NC(=O)[C@H](CCC(N)=O)NC(=O)[C@@H]1CCCN1C(=O)[C@@H](NC(=O)[C@H](Cc1ccc(O)cc1)NC(=O)CNC(=O)[C@H](Cc1ccc(O)cc1)NC(=O)[C@H](Cc1c[nH]c2ccccc12)NC(=O)[C@H](Cc1c[nH]cn1)NC(=O)[C@H](Cc1ccc(O)cc1)NC(=O)CCCCCNC(=O)[C@H](CSC1CC(=O)N(CCC(=O)NCCCC[C@@H]2NC(=O)[C@@H](Cc3ccc(O)cc3)NC(=O)[C@H](CC(=O)O)NC(=O)CNC(=O)[C@H](CCCNC(=N)N)NC2=O)C1=O)NC(=O)CN1CCN(CC(=O)O)CCN(CC(=O)O)CC1)[C@@H](C)O)C(C)C)C(=O)O` (stereo partly shown) [^68Ga-NOTA-RGD-GE11, metal not drawn], the tissue to tissue ratio at 2 h in data set [1] (tumor / muscle, total radioactivity) was 4.31. NOTA-c(RGDyk)-cys-6-ahx-GE11: the “inhibition of the binding of the anti-integrin αV antibody to tumor cells” value in data set [2] is recorded as “can effectively inhibit the binding”. In addition, the “inhibition of the binding of the anti-EGFR antibody to tumor cells” value on EGFR in A549 tumor cells is listed as “can effectively inhibit the binding”.

The values are drawn from US9981050B2, “Bispecific peptide conjugate and radioactive bispecific peptide imaging agent” (Institute of Nuclear Energy Research, Atomic Energy …, priority 2015, dated 2018).
